Experimental data reported in PMC9482650, “Quantitative fragmentomics allow affinity mapping of interactomes” (Nature Communications, 2022).
One block for each binder: values may come before it.

How the values were obtained:
Assay in all cases: holdup assay
Set-up in all cases: key: below the threshold = too weak to quantify, mostly under pKd 3.1 to 4
ARHGAP21, Q5T5U3 = molecular target: T1, ARHGAP21, Q5T5U3
T1 sequence (Q5T5U3 45-169, limits assumed, looked up): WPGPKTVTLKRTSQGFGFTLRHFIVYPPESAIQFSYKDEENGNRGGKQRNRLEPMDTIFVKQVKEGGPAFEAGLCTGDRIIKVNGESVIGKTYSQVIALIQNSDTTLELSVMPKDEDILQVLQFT

TJP1_3, Q07157 = molecular target: TJP1_3, Q07157
Sequence of TJP1_3, Q07157 (Q07157 416-512): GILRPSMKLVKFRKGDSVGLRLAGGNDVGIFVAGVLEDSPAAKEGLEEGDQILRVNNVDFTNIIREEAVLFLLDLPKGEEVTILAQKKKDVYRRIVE

DLG3_3, Q92796 = molecular target: T2, DLG3_3, Q92796
T2 sequence (Q92796 374-475, limits assumed, looked up): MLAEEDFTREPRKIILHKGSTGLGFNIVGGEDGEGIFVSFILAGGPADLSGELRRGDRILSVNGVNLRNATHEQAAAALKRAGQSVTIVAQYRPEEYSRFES

GRIP2_7, Q9C0E4 = molecular target: GRIP2_7, Q9C0E4
Sequence of GRIP2_7, Q9C0E4 (Q9C0E4 934-1023): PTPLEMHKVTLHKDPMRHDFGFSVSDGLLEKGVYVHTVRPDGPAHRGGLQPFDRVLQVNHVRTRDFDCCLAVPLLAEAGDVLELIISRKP

FRMPD4, Q14CM0 = molecular target: FRMPD4, Q14CM0
Sequence of FRMPD4, Q14CM0 (Q14CM0 67-160): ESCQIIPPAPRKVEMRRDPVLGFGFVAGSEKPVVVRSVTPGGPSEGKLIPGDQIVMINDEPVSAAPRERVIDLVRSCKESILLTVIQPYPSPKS

LNX1_3, Q8TBB1 = molecular target: LNX1_3, Q8TBB1
Sequence of LNX1_3, Q8TBB1 (Q8TBB1 500-596): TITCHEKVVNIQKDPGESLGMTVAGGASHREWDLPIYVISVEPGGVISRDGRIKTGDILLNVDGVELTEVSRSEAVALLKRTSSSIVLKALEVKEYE

PICK1, Q9NRD5 = molecular target: PICK1, Q9NRD5
Sequence of PICK1, Q9NRD5 (Q9NRD5 17-115): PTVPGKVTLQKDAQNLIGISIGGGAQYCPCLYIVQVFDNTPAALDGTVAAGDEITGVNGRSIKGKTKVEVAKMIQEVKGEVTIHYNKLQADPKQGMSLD

GRIP2_5, Q9C0E4 = molecular target: GRIP2_5, Q9C0E4
Sequence of GRIP2_5, Q9C0E4 (Q9C0E4 544-642): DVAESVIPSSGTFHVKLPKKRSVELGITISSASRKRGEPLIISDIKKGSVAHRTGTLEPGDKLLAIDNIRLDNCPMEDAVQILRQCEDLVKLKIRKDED

LIN7A, O14910 = molecular target: T3, LIN7A, O14910
T3 sequence (O14910 103-200, limits assumed, looked up): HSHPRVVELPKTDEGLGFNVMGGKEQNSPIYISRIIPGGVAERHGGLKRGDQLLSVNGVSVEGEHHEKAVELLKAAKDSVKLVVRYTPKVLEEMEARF

MAST2, Q6P0Q8 = molecular target: MAST2, Q6P0Q8
Sequence of MAST2, Q6P0Q8 (Q6P0Q8 1099-1202): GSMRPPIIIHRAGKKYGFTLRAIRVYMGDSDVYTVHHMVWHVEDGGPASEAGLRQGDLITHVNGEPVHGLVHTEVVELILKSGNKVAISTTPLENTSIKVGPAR

DLG1_1, Q12959 = molecular target: DLG1_1, Q12959
Inadl_10, Q8NI35 = molecular target: Inadl_10, Q8NI35
Sequence of Inadl_10, Q8NI35 (Q8NI35 1673-1763): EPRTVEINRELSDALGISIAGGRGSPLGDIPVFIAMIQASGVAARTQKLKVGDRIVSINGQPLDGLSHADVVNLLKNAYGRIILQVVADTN

DLG1_3, Q12959 = molecular target: DLG1_3, Q12959
MPDZ_5, O75970 = molecular target: T4, MPDZ_5, O75970
T4 sequence (O75970 695-796, limits assumed, looked up): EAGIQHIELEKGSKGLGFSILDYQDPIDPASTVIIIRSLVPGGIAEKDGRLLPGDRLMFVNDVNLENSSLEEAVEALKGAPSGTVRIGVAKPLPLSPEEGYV

PCLO, Q9Y6V0 = molecular target: T5, PCLO, Q9Y6V0
T5 sequence (Q9Y6V0 4491-4600, limits assumed, looked up): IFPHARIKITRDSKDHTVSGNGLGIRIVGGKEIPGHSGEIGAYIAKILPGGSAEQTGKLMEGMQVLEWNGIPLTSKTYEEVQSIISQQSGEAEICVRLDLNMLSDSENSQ

GRASP, Q7Z6J2 = molecular target: GRASP, Q7Z6J2
Sequence of GRASP, Q7Z6J2 (Q7Z6J2 96-193): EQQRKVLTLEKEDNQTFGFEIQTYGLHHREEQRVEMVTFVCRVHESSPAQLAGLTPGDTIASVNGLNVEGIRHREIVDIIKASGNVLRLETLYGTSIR

LIN7B, Q9HAP6 = molecular target: T6, LIN7B, Q9HAP6
T6 sequence (Q9HAP6 88-185, limits assumed, looked up): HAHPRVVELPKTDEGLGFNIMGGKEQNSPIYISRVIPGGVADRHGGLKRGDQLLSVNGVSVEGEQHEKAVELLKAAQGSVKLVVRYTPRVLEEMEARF

TX1BP3, O14907 = molecular target: T7, TX1BP3, O14907
T7 sequence (O14907 10-122, limits assumed, looked up): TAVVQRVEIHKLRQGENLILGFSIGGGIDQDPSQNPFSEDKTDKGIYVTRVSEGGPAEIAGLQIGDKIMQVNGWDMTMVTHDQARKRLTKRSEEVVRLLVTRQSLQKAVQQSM

IL16_3, Q14005 = molecular target: IL16_3, Q14005
Sequence of IL16_3, Q14005 (Q14005 1107-1207): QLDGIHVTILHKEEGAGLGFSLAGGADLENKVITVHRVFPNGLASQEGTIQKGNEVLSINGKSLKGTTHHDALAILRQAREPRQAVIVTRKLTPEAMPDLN

DLG1_2, Q12959 = molecular target: DLG1_2, Q12959
LDB3, O75112 = molecular target: LDB3, O75112
Sequence of LDB3, O75112 (O75112 1-94): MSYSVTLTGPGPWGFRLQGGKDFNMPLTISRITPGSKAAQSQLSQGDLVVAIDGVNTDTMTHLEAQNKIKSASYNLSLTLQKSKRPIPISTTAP

GRIP2_3, Q9C0E4 = molecular target: GRIP2_3, Q9C0E4
Sequence of GRIP2_3, Q9C0E4 (Q9C0E4 238-339): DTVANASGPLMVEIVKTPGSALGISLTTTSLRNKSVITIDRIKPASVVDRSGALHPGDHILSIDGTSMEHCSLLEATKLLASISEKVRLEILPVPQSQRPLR

Inadl_5, Q8NI35 = molecular target: Inadl_5, Q8NI35
Sequence of Inadl_5, Q8NI35 (Q8NI35 673-780): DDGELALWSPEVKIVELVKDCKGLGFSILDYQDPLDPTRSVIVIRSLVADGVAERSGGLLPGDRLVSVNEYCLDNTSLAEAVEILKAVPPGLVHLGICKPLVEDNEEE

SNTG2, Q9NY99 = molecular target: T8, SNTG2, Q9NY99
T8 sequence (Q9NY99 68-166, limits assumed, looked up): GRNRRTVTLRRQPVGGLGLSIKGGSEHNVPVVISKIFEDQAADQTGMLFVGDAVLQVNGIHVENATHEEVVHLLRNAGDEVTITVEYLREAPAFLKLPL

PARD3B_1, Q8TEW8 = molecular target: T9, PARD3B_1, Q8TEW8
T9 sequence (Q8TEW8 196-299, limits assumed, looked up): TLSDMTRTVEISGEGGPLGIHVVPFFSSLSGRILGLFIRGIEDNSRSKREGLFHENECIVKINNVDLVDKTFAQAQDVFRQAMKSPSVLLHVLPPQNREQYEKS

PDZD7_3, Q9H5P4 = molecular target: T10, PDZD7_3, Q9H5P4
T10 sequence (Q9H5P4 857-944, limits assumed, looked up): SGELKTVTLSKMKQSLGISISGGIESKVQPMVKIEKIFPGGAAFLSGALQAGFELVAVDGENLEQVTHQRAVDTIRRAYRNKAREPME

DLG2_2, Q15700 = molecular target: DLG2_2, Q15700
Sequence of DLG2_2, Q15700 (Q15700 189-283): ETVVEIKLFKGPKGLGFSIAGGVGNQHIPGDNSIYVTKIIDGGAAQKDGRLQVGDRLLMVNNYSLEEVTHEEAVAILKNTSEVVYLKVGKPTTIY

MAGI3_2, Q5TCQ9 = molecular target: MAGI3_2, Q5TCQ9
Sequence of MAGI3_2, Q5TCQ9 (Q5TCQ9 398-503): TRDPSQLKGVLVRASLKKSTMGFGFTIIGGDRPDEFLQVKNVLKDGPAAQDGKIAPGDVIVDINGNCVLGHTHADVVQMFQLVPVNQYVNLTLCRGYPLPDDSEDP

[1] = plain residues with an end cap or a label only (N-terminal biotin on a linker: ttds)
[2] = plain residues with an end cap or a label only (N-terminal biotin on a linker: ado-ado)
[3] = plain residues with an end cap or a label only (N-terminal biotin on a linker: ahx)

pKd (ARHGAP21, Q5T5U3; [1]): below the threshold
pKd (TJP1_3, Q07157; [1]): below the threshold
pKd (DLG3_3, Q92796; [1]): below the threshold
pKd (GRIP2_7, Q9C0E4; [1]): 3.64
pKd (FRMPD4, Q14CM0; [1]): below the threshold
pKd (LNX1_3, Q8TBB1; [1]): below the threshold
pKd (PICK1, Q9NRD5; [1]): below the threshold
pKd (GRIP2_5, Q9C0E4; [1]): below the threshold
pKd (LIN7A, O14910; [1]): below the threshold
pKd (MAST2, Q6P0Q8; [1]): 4.36
pKd (DLG1_1, Q12959; [1]): 4.01
pKd (Inadl_10, Q8NI35; [1]): below the threshold
pKd (DLG1_3, Q12959; [1]): below the threshold
pKd (MPDZ_5, O75970; [1]): below the threshold
pKd (PCLO, Q9Y6V0; [1]): below the threshold
pKd (GRASP, Q7Z6J2; [1]): 4.17
pKd (LIN7B, Q9HAP6; [1]): below the threshold
pKd (TX1BP3, O14907; [1]): below the threshold
pKd (IL16_3, Q14005; [1]): below the threshold
pKd (DLG1_2, Q12959; [1]): below the threshold
pKd (LDB3, O75112; [1]): below the threshold
pKd (GRIP2_3, Q9C0E4; [1]): below the threshold
pKd (Inadl_5, Q8NI35; [1]): below the threshold
pKd (SNTG2, Q9NY99; [1]): 3.84
pKd (PARD3B_1, Q8TEW8; [1]): below the threshold
pKd (PDZD7_3, Q9H5P4; [1]): below the threshold
pKd (DLG2_2, Q15700; [1]): 3.59
pKd (MAGI3_2, Q5TCQ9; [1]): 3.55
Binder: DPLTPSRSQL [DGKK, Q5KSL6]

pKd (ARHGAP21, Q5T5U3; [2]): 4.09
pKd (TJP1_3, Q07157; [2]): below the threshold
pKd (DLG3_3, Q92796; [2]): below the threshold
pKd (GRIP2_7, Q9C0E4; [2]): 4.8
pKd (FRMPD4, Q14CM0; [2]): 4.18
pKd (LNX1_3, Q8TBB1; [2]): 3.99
pKd (PICK1, Q9NRD5; [2]): below the threshold
pKd (GRIP2_5, Q9C0E4; [2]): below the threshold
pKd (LIN7A, O14910; [2]): below the threshold
pKd (MAST2, Q6P0Q8; [2]): 3.97
pKd (DLG1_1, Q12959; [2]): below the threshold
pKd (Inadl_10, Q8NI35; [2]): below the threshold
pKd (DLG1_3, Q12959; [2]): below the threshold
pKd (MPDZ_5, O75970; [2]): 4.34
pKd (PCLO, Q9Y6V0; [2]): below the threshold
pKd (GRASP, Q7Z6J2; [2]): below the threshold
pKd (LIN7B, Q9HAP6; [2]): 3.59
pKd (TX1BP3, O14907; [2]): below the threshold
pKd (IL16_3, Q14005; [2]): below the threshold
pKd (DLG1_2, Q12959; [2]): below the threshold
pKd (LDB3, O75112; [2]): below the threshold
pKd (GRIP2_3, Q9C0E4; [2]): below the threshold
pKd (Inadl_5, Q8NI35; [2]): 4.55
pKd (SNTG2, Q9NY99; [2]): below the threshold
pKd (PARD3B_1, Q8TEW8; [2]): 3.84
pKd (PDZD7_3, Q9H5P4; [2]): below the threshold
pKd (DLG2_2, Q15700; [2]): below the threshold
pKd (MAGI3_2, Q5TCQ9; [2]): 4.63
Binder: QKNKDKEYYV [NRXN3_rs746444206, Q9Y4C0]

pKd (ARHGAP21, Q5T5U3; [3]): below the threshold
pKd (TJP1_3, Q07157; [3]): below the threshold
pKd (DLG3_3, Q92796; [3]): below the threshold
pKd (GRIP2_7, Q9C0E4; [3]): below the threshold
pKd (FRMPD4, Q14CM0; [3]): below the threshold
pKd (LNX1_3, Q8TBB1; [3]): below the threshold
pKd (PICK1, Q9NRD5; [3]): below the threshold
pKd (GRIP2_5, Q9C0E4; [3]): below the threshold
pKd (LIN7A, O14910; [3]): below the threshold
pKd (MAST2, Q6P0Q8; [3]): 4.5
pKd (DLG1_1, Q12959; [3]): below the threshold
pKd (Inadl_10, Q8NI35; [3]): below the threshold
pKd (DLG1_3, Q12959; [3]): below the threshold
pKd (MPDZ_5, O75970; [3]): below the threshold
pKd (PCLO, Q9Y6V0; [3]): below the threshold
pKd (GRASP, Q7Z6J2; [3]): below the threshold
pKd (LIN7B, Q9HAP6; [3]): below the threshold
pKd (TX1BP3, O14907; [3]): below the threshold
pKd (IL16_3, Q14005; [3]): below the threshold
pKd (DLG1_2, Q12959; [3]): below the threshold
pKd (LDB3, O75112; [3]): below the threshold
pKd (GRIP2_3, Q9C0E4; [3]): below the threshold
pKd (Inadl_5, Q8NI35; [3]): below the threshold
pKd (SNTG2, Q9NY99; [3]): below the threshold
pKd (PARD3B_1, Q8TEW8; [3]): below the threshold
pKd (PDZD7_3, Q9H5P4; [3]): below the threshold
pKd (DLG2_2, Q15700; [3]): below the threshold
pKd (MAGI3_2, Q5TCQ9; [3]): below the threshold
Binder: SSSNSEDTEM [NHERF3, Q5T2W1]
